In patent publication US20220233638A1 (WASEDA UNIVERSITY, published 2022) one finds Kd data, which are given here for 1 molecule.

One may read the Kd as a measure of binding affinity in units of concentration. Low readings indicate tighter binding, high ones weaker binding.

The target in this test is T1, GST-DLA88-α3 (dog, UniProt P18466 207-299).
T1 construct: also called recombinant protein containing only α3 domain of DLA88; not shown: glutathione S-transferase (GST) tag of expression vector pGEX-6p-1
Description: biolayer interferometry (BLItz); GST-DLA88-α3 immobilised on anti-GST sensor, GST-LILRB3 D1/D2 loaded as sample. The method, then:
The recombinant proteins DLA88-α3 and LILRB3-D1/D2 used in (b) were separately incubated at 37° C. for 2 hr, and immobilized on the BLI sensor for 5 min using DLA88-α3 as a ligand. LILRB3-D1/2D was loaded as a sample at the indicated concentrations.
BLItz™ ([…]) was used to analyze the dynamics between DLA88-α3 and LILRB3-D1/D2. A GST sensor and an anti-GST antibody-immobilized sensor ([…]) were used. GST-DLA88-α3 and GST-LILRB3-D1/D2 were separately incubated at 37° C. for 2 hr. GST-DLA88-α3 was immobilized on the GST sensor as a ligand molecule for 5 min and completely covered with the GST sensor. After washing with PBS-T (5% Tween-PBS) for 30 sec, GST-LILRB3 D1/D2 was loaded as a sample while trembling for 2 min. In addition to association kinetics, dissociation kinetics was evaluated in PBS-T buffer for 2 min. The recombinant protein GST-GFP was used as a control.
(In general: In BLI a coated tip is dipped into the sample, and binding shifts an interference pattern.)

T1 sequence (P18466 other isoform, or with tags, fused parts or gaps): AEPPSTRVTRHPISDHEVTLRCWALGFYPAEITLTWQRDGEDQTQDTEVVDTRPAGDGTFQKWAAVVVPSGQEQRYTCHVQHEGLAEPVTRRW

B1: GST-LILRB3-D1/D2 (receptor)
chain: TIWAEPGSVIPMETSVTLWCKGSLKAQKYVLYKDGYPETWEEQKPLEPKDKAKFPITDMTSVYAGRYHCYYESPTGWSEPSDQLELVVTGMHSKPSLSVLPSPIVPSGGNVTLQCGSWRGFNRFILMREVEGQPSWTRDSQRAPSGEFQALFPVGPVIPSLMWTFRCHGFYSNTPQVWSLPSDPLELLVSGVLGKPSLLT
notes: also called LILRB3-D1/2D; not shown: glutathione S-transferase (GST) tag of expression vector pGEX-6p-1
On to B1, for which binding was characterised by a dissociation constant (Kd) of 6.54 µM.
